For assay [1], the target named is Lst-ABD, recombinant fusion protein with lysostaphin at the N-terminus and the albumin-binding domain from streptococcal protein G at the C-terminus (not stated | Streptococcus sp.). Kind of assay: photonic crystal-based biosensor (EVA 2.0); Lst-ABD immobilised covalently by amine coupling (EDC/NHS) on a carboxylate-derivatized photonic crystal chip; albumin in PBST (PBS + 0.02% Tween-20, pH 7.4) pumped through the flow cell, ~5 min association, ~5 min dissociation; RSA 250, 42, 7 and 1.2 µg/mL, BSA 1 mg/mL; heterogeneous binding model with two independent sites, koff1 = koff2 fixed.

The target is the same in assay [2].

As usually defined, the koff is a measure of how fast the partners let go of each other. As to “rat serum albumin (from UniProt P02770 25-608) (natural protein)”, in assay [1], the KD1 (high-affinity site) turned out to be 2.3 nM, the KD2 (low-affinity site) was 20 nM, the koff is 5.9e-05 s⁻¹ and the kon1 (high-affinity site) was found to be 26000 M⁻¹ s⁻¹. Also, in assay [1], the kon2 (low-affinity site) was found to be 3000 M⁻¹ s⁻¹. Besides, in assay [2], the rate of clearing of S. aureus ATCC 29213 cell suspension (turbidimetry, OD 550 nm) by Lst-ABD in the presence of 100 µg/mL RSA, relative to lysostaphin turned out to be 25%.
